Data as given in patent US20080242601A1 (INSTITUTE PASTEUR, published 2008).
Like-named read-outs stand apart in the source and are kept apart here. * marks the point of attachment. BODIPYFLEthylmaleimide = Cc1cc(C)n2c1C=C1C=CC(CCC(=O)NCCN3C(=O)CC(*)C3=O)=[N+]1[B-]2(F)F

T1: NEMO (NF-kB essential modulator), murine (murine, UniProt O88522 1-412)
T1 chain: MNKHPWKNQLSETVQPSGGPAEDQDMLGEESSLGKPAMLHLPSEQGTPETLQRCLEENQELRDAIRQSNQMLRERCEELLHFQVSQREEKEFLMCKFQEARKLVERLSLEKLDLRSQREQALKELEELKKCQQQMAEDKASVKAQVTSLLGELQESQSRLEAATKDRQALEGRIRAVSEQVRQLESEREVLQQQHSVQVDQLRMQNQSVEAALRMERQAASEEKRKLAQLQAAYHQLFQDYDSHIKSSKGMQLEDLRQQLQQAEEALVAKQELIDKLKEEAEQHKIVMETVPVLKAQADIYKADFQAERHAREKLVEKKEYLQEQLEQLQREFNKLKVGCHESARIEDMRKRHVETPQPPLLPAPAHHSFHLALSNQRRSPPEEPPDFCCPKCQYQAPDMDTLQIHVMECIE

B1: BODIPY-TAT-NLM-DR (peptide)
peptide: Ac-C(BODIPYFLEthylmaleimide)YGRKKRRQRRRLKAQADIYKARFQAERHAREK-NH2
SMILES: CC[C@H](C)[C@H](NC(=O)[C@H](CC(=O)O)NC(=O)[C@H](C)NC(=O)[C@H](CCC(N)=O)NC(=O)[C@H](C)NC(=O)[C@H](CCCCN)NC(=O)[C@H](CC(C)C)NC(=O)[C@H](CCCNC(=N)N)NC(=O)[C@H](CCCNC(=N)N)NC(=O)[C@H](CCCNC(=N)N)NC(=O)[C@H](CCC(N)=O)NC(=O)[C@H](CCCNC(=N)N)NC(=O)[C@H](CCCNC(=N)N)NC(=O)[C@H](CCCCN)NC(=O)[C@H](CCCCN)NC(=O)[C@H](CCCNC(=N)N)NC(=O)CNC(=O)[C@H](Cc1ccc(O)cc1)NC(=O)[C@H](CSC1CC(=O)N(CCNC(=O)CCC2=[N+]3C(=Cc4c(C)cc(C)n4[B-]3(F)F)C=C2)C1=O)NC(C)=O)C(=O)N[C@@H](Cc1ccc(O)cc1)C(=O)N[C@@H](CCCCN)C(=O)N[C@@H](C)C(=O)N[C@@H](CCCNC(=N)N)C(=O)N[C@@H](Cc1ccccc1)C(=O)N[C@@H](CCC(N)=O)C(=O)N[C@@H](C)C(=O)N[C@@H](CCC(=O)O)C(=O)N[C@@H](CCCNC(=N)N)C(=O)N[C@@H](Cc1c[nH]cn1)C(=O)N[C@@H](C)C(=O)N[C@@H](CCCNC(=N)N)C(=O)N[C@@H](CCC(=O)O)C(=O)N[C@@H](CCCCN)C(N)=O
B2: BODIPY-R7-NLM-DR (peptide)
peptide: Ac-C(BODIPYFLEthylmaleimide)RRRRRRRLKAQADIYKARFQAERHAREK-NH2
SMILES: CC[C@H](C)[C@H](NC(=O)[C@H](CC(=O)O)NC(=O)[C@H](C)NC(=O)[C@H](CCC(N)=O)NC(=O)[C@H](C)NC(=O)[C@H](CCCCN)NC(=O)[C@H](CC(C)C)NC(=O)[C@H](CCCNC(=N)N)NC(=O)[C@H](CCCNC(=N)N)NC(=O)[C@H](CCCNC(=N)N)NC(=O)[C@H](CCCNC(=N)N)NC(=O)[C@H](CCCNC(=N)N)NC(=O)[C@H](CCCNC(=N)N)NC(=O)[C@H](CCCNC(=N)N)NC(=O)[C@H](CSC1CC(=O)N(CCNC(=O)CCC2=[N+]3C(=Cc4c(C)cc(C)n4[B-]3(F)F)C=C2)C1=O)NC(C)=O)C(=O)N[C@@H](Cc1ccc(O)cc1)C(=O)N[C@@H](CCCCN)C(=O)N[C@@H](C)C(=O)N[C@@H](CCCNC(=N)N)C(=O)N[C@@H](Cc1ccccc1)C(=O)N[C@@H](CCC(N)=O)C(=O)N[C@@H](C)C(=O)N[C@@H](CCC(=O)O)C(=O)N[C@@H](CCCNC(=N)N)C(=O)N[C@@H](Cc1c[nH]cn1)C(=O)N[C@@H](C)C(=O)N[C@@H](CCCNC(=N)N)C(=O)N[C@@H](CCC(=O)O)C(=O)N[C@@H](CCCCN)C(N)=O
B3: BODIPY-Ant-LZ (WT) (peptide)
peptide: Ac-C(BODIPYFLEthylmaleimide)RQIKIWFQNRRMKWKKLKAQADIYKADFQAERHAREKLVEKKEYLQEQLEQLQREFNKL-NH2
notes: Synthetic fusion peptide; also called cell permeable LZ
B4: CC2 (WT) (peptide)
peptide: Ac-SKGMQLEDLRQQLQQAEEALVAKQELIDKLKEEAEQHKIV-NH2
notes: Synthetic peptide; Forms a trimer by gel filtration at 10 uM; also called CC2 peptide; CC2 wild type
B5: BODIPY-Ant-NLM-DR (peptide)
peptide: Ac-C(BODIPYFLEthylmaleimide)RQIKIWFQNRRMKWKKLKAQADIYKARFQAERHAREK-NH2
SMILES: CC[C@H](C)[C@H](NC(=O)[C@H](CC(=O)O)NC(=O)[C@H](C)NC(=O)[C@H](CCC(N)=O)NC(=O)[C@H](C)NC(=O)[C@H](CCCCN)NC(=O)[C@H](CC(C)C)NC(=O)[C@H](CCCCN)NC(=O)[C@H](CCCCN)NC(=O)[C@H](Cc1c[nH]c2ccccc12)NC(=O)[C@H](CCCCN)NC(=O)[C@H](CCSC)NC(=O)[C@H](CCCNC(=N)N)NC(=O)[C@H](CCCNC(=N)N)NC(=O)[C@H](CC(N)=O)NC(=O)[C@H](CCC(N)=O)NC(=O)[C@H](Cc1ccccc1)NC(=O)[C@H](Cc1c[nH]c2ccccc12)NC(=O)[C@@H](NC(=O)[C@H](CCCCN)NC(=O)[C@@H](NC(=O)[C@H](CCC(N)=O)NC(=O)[C@H](CCCNC(=N)N)NC(=O)[C@H](CSC1CC(=O)N(CCNC(=O)CCC2=[N+]3C(=Cc4c(C)cc(C)n4[B-]3(F)F)C=C2)C1=O)NC(C)=O)[C@@H](C)CC)[C@@H](C)CC)C(=O)N[C@@H](Cc1ccc(O)cc1)C(=O)N[C@@H](CCCCN)C(=O)N[C@@H](C)C(=O)N[C@@H](CCCNC(=N)N)C(=O)N[C@@H](Cc1ccccc1)C(=O)N[C@@H](CCC(N)=O)C(=O)N[C@@H](C)C(=O)N[C@@H](CCC(=O)O)C(=O)N[C@@H](CCCNC(=N)N)C(=O)N[C@@H](Cc1c[nH]cn1)C(=O)N[C@@H](C)C(=O)N[C@@H](CCCNC(=N)N)C(=O)N[C@@H](CCC(=O)O)C(=O)N[C@@H](CCCCN)C(N)=O

Columns and labels:
[1] = target: T1, NEMO (NF-kB essential modulator), murine; experiment: cell-based or functional assay
[2] = target: T1, NEMO (NF-kB essential modulator), murine; experiment: cell-based or functional assay
[3] = target: B4; experiment: fluorescence anisotropy, fixed BODIPY-Ant-LZ (0.1 µM) with CC2
Protocol: (A) Direct titration of BODIPY-Ant-CC2 (1 μM) with CC2 by fluorescence anitropy. The concentration of CC2 was determined by amino acid analysis. Anisotropy values of BODIPY-Ant-CC2 in milliunits (mA) were plotted against an increasing concentration of the CC2 peptide. […] The two dashed lines represent a stoichiometric titration and intersect at an CC2 concentration of 16 μM. Given the 1 μM concentration of the BODIPY-Ant-CC2, this gives a complex stoechiometrie of 0.8. (B) Direct titration of BODIPY-Ant-LZ (0.1 μM with CC2 by fluorescence anitropy. The anisotropy values of the BODIPY-Ant-LZ alone (white bar) or in the presence of the CC2 peptide (30 μM, grey bar; 100 μM, black bar) are given in milliunits (mA).
Anisotropy measurements were performed with a PTI Quantamaster fluorometer equipped with polarizers for the excitation and emission beams. This instrument uses a PMT in the L-configuration. […] Steady-state fluorescence anisotropy was expressed as millianisotropy (mA) and was calculated according to the equations: (1) A=(I_VV-GIVH)/(IVV+2GIVH); (2) G=IHV/IHH.; where A is anisotropy, G is a correction factor for wavelength-dependent distortion and I is the fluorescence intensity component (subscript referring to the vertical and horizontal positioning at the excitation and emission polarizers, respectively). […]

[4] = target: T1, NEMO (NF-kB essential modulator), murine; experiment: cell-based or functional assay
[5] = target: the molecule itself; experiment: gel filtration (Superdex 75) at 10 µM, self-association
Protocol: The oligomeric states of peptides were determined by filtration as described in Traincard et al., 2003. In brief, 500 μl samples were loaded on a Superdex 75 HR 10/30 column equilibrated in 50 mM Tris-HCl pH 8.0 containing 200 mM NaCl and 0.1 mM DDM, at a constant flow rate of 0.4 ml/min. The presence of the DDM detergent was added in the equilibrium buffer to minimize the adsorption in the column and to increase the peptide recovery. The column was calibrated in the same equilibrium buffer with blue dextran 2000 (void volume), dithioerythritol (total volume), bovine serum albumin (67 kDa, Rs=35.2 Å), ovalbumine (43 kDa, Rs=27.5 Å), chymotrypsinogen A (25 kDa, Rs=21.1 Å), ribonuclease A (13.7 kDa, Rs=16.4 Å), cytochrome C (12.4 kDa, Rs=17.7 Å) and aprotinin (6.5 KDa, Rs=13.5 Å).
The antennapedia sequence is a protein transduction domain (PTD) which adopts an alpha-helical amphiphatic structure (Prochiantz, 2000, Curr. Opin. Cell Biol.). […] To examine the effect of N-fusion of the antennapedia peptide on the oligomerization properties of the CC2 and the LZ peptides, the present inventors analyzed peptides containing or not containing the antennapedia sequence at their N-terminus by gel filtration. […]

Work on BODIPY-Ant-CC2 (WT) (peptide) yielded an IC50 of inhibition of LPS-induced NF-κB activation (β-galactosidase reporter, 70Z3-C3 cells) [1] of 22000 nM, a fold reduction of LPS-induced NF-κB activation at 10 µM (stringent β-galactosidase assay) [1] of 1.7 fold and a reduction of NF-κB activity at 20 µM after LPS stimulation of B lymphocytes [1] of 70%.

With B1 the “IC 50 (inhibition of NF-κB activation pathway)” value [2] was 1000 nM.

In the case of B2, the “IC 50 (inhibition of NF-κB activation pathway)” value [2] is reported as 900 nM.

B3 was tested, and the binding result [3] was “binds”, the “IC50 of inhibition of LPS-induced NF-κB activation (β-galactosidase reporter, 70Z3-C3 cells)” value [4] was 3000 nM and the “fold reduction of LPS-induced NF-κB activation at 10 µM (stringent β-galactosidase assay)” value [4] was 5.8 fold.

B4: binds [5].

B5 was tested, and the “IC 50 (inhibition of NF-κB activation pathway)” value [2] was 1100 nM.

With Ac-C(BODIPYFLEthylmaleimide)RRRRRRRRRLKAQADIYKARFQAERHAREK-NH2 (not fully specified) [BODIPY-R9-NLM-DR] the “IC 50 (inhibition of NF-κB activation pathway)” value [2] was 900 nM.
